Reference: patent US20210230599, “STEM-LOOP COMPOSITIONS AND METHODS FOR INHIBITING INTERLEUKIN-8” (VITRISA THERAPEUTICS, INC., published 2021)
Changes are numbered by the printed parent chain.

Key:
[1] = biological target: T1, Interleukin-8 (IL8, CXCL8), C-terminal His-tagged (Homo sapiens, UniProt P10145 SEQ:1-72); assay: cell_activity; neutrophil migration, 3 nM IL8, protein limited; conditions: tags: C-terminal His (Sino Biological); stem-loop
Protocol: (§1) Freshly isolated primary human neutrophil migration stimulated by IL8 was measured using a transwell assay. Neutrophils were isolated from fresh whole human blood using Polymorphprep™ (AXIS Shield) and then were re-suspended in assay buffer (RPMI+0.1% Human Serum Albumin) at 10\hat{ }6 cells/mL. 5 μm Transwell inserts (Corning) were activated with […] in the plate and 100 µL of assay buffer in the transwell at 37° C. 3 nM IL8 and aptamers or controls were incubated for 1 hour, then 200 µL of the aptamer/IL8 mix was added to each well and 100 μL of neutrophils was added to the transwell. Aptamer inhibition was tested at two concentrations: 10 nM and 100 nM. After 45 minutes at 37° C., 100 μL from each well was transferred to a white 96-well plate with 50 μL of lysis buffer. The number of cells that migrated from the transwell to the well was quantified by ATPLITE® Luminescence Assay System (Perkin Elmer). In Table 13, values are normalized to 3 nM IL8 treatment and average between replicates with standard deviation. 3 nM IL8 activity inhibited by at least 50% at 10 nM aptamer concentration is consistent with aptamers having IC₅₀ values of 10 nM or better, as observed for Aptamer 3 and Aptamer 8.
The neutrophil migration assays described in Examples 6 and 18 were used to confirm the activity of Aptamers 8, 212, and 248. Assays were performed as described in those examples.

[2] = biological target: T1, Interleukin-8 (IL8, CXCL8), C-terminal …; assay: inhibition; inhibition of IL8 binding to CXCR1 cells, protein limited; neutrophil migration 3 nM; conditions: tags: C-terminal His (Sino Biological); stem-loop
Protocol: CXCR1 overexpressing cells were used to confirm that aptamers could block IL8 binding to its cognate receptor, CXCR1, in a functional setting. Briefly, CXCR1-overexpressing cells were plated in a 96 well plate and seeded overnight. Serially diluted aptamers and 5 nM IL8 were mixed in cell culture media and applied to cells for 2 hours at 37° C. Media was aspirated, and cells were washed 3× with PBS for 5 minutes. Cells were lysed in Ultra HiBlock Buffer (Perkin Elmer) with gentle agitation. IL8 levels were determined using Ultra TR-FRET (Perkin Elmer).

[3] = biological target: T1, Interleukin-8 (IL8, CXCL8), C-terminal …; assay: cell_activity; neutrophil migration, 3 nM IL8, protein limited; conditions: tags: C-terminal His (Sino Biological); stem-loop; remark: listed apart in the source
Protocol: as §1
The neutrophil migration assay described in Example 6 was used to further characterize optimized variants of Aptamer 3. […]

[4] = biological target: T1, Interleukin-8 (IL8, CXCL8), C-terminal …; assay: competition; competition TR-FRET; S2 shortened; conditions: tags: C-terminal 6xHis (Sino Biological)
Protocol: (§2) To better understand the sequence requirements and to confirm the stem structures of members of the Aptamer 3 family as determined from sequence covariation analysis from both the primary and secondary (degenerate) selections, a series of variants which included mutations and deletions to the predicted stems were synthesized and screened (Table 24). Activity of each of these variants were tested using a time resolved competition TR-FRET assay in which the labeled parent Aptamer 3 was competed with increasing concentrations of unlabeled variants for binding to IL8 (FIG. 14). Briefly, 2-fold dilutions of thermally equilibrated aptamers were made in TR-FRET Buffer (50 mM MOPS, pH 7.4, 125 mM NaCl, 5 mM KCl, 50 μM CHAPS, 0.1 mg/mL BSA, 1 mM CaCl₂, and 1 mM MgCl₂). 5 μL of aptamer or control solution was added to 5 μl mix of 10 nM C-terminal His-tagged-IL8, 60 nM ALEXA FLUOR® 647-labeled Aptamer, and 5 nM anti-His-Eu (Perkin Elmer) in a black wall low volume 384 well plate (Greiner). For control, 5 μl of 1000-fold excess of unlabeled parent aptamer or 5 μl TR-FRET buffer alone was added to the mix of ALEXA FLUOR® 647-labeled aptamer, His-IL8, and anti-His-Eu. The plate was covered with a plate seal and subsequently incubated in the dark for 1 hour at room temperature. The plate was read on a Biotek CYTATION™ 5 plate reader. […]

[5] = biological target: T1, Interleukin-8 (IL8, CXCL8), C-terminal …; assay: TR-FRET; bead flow 16 nM; conditions: tags: C-terminal 6xHis (Sino Biological); label: Alexa Fluor 647; stem-loop (Aptamer 3 family)
Protocol: (§3) Aptamers were synthesized and labeled with ALEXA FLUOR® 647, and binding to IL8 was quantified by Time-Resolved Fluorescence Resonance Energy Transfer (TR-FRET). Briefly, 2-fold dilutions of thermally equilibrated aptamers were made in TR-FRET Buffer (50 mM MOPS, pH 7.4, 125 mM NaCl, 5 mM KCl, 50 μM CHAPS, 0.1 mg/mL BSA, 1 mM CaCl₂ and 1 mM MgCl₂). […] of aptamer or control solution was added to 10 μL of 15 nM C-His-tagged-IL8 (Sino Biological) in a black wall half-area plate (Corning). In the same plate, 10 μl of aptamer solution was added to 10 μl of TR-FRET buffer alone to use for background subtraction. 10 μl of 15 nM anti-His-Eu (Perkin Elmer) was added to each well, the plate was covered with a plate seal and subsequently incubated in the dark for 1 hour at room temperature. The plate was read on a Biotek CYTATION™ 5 plate reader. Samples were excited at 330 nm and fluorescent values were collected at 665 nm. […] Apparent Kd values obtained for the fits are calculated as the concentration of half-maximal binding and shown in Table 10, and fit curves as FIG. 6. […] It is also possible that differences may arise due to TR-FRET being a homogenous solution binding assay, while bead binding has immobilized ligand and is non-homogenous, so bound aptamers may dissociate during analysis resulting in higher calculated Kd values.

[6] = biological target: T1, Interleukin-8 (IL8, CXCL8), C-terminal …; assay: TR-FRET; bead flow 7 nM; conditions: tags: C-terminal 6xHis (Sino Biological); label: Alexa Fluor 647
Protocol: as §3

[7] = biological target: T1, Interleukin-8 (IL8, CXCL8), C-terminal …; assay: TR-FRET; bead flow 20 nM; conditions: tags: C-terminal 6xHis (Sino Biological); label: Alexa Fluor 647
Protocol: as §3

[8] = biological target: T1, Interleukin-8 (IL8, CXCL8), C-terminal …; assay: TR-FRET; bead flow 11 nM; conditions: tags: C-terminal 6xHis (Sino Biological); label: Alexa Fluor 647
Protocol: as §3

[9] = biological target: T1, Interleukin-8 (IL8, CXCL8), C-terminal …; assay: competition; competition TR-FRET; U20C; conditions: tags: C-terminal 6xHis (Sino Biological)
[10] = biological target: T1, Interleukin-8 (IL8, CXCL8), C-terminal …; assay: TR-FRET; bead flow 19 nM; conditions: tags: C-terminal 6xHis (Sino Biological); label: Alexa Fluor 647
Protocol: as §3

[11] = biological target: T1, Interleukin-8 (IL8, CXCL8), C-terminal …; assay: competition; competition TR-FRET; U20A; conditions: tags: C-terminal 6xHis (Sino Biological)
Protocol: as §2

[12] = biological target: T1, Interleukin-8 (IL8, CXCL8), C-terminal …; assay: TR-FRET; bead flow 21 nM; conditions: tags: C-terminal 6xHis (Sino Biological); label: Alexa Fluor 647
Protocol: as §3

[13] = biological target: T1, Interleukin-8 (IL8, CXCL8), C-terminal …; assay: competition; competition TR-FRET; conditions: tags: C-terminal 6xHis (Sino Biological)
Protocol: as §2

[14] = biological target: T1, Interleukin-8 (IL8, CXCL8), C-terminal …; assay: TR-FRET; bead flow 10 nM; conditions: tags: C-terminal 6xHis (Sino Biological); label: Alexa Fluor 647
Protocol: as §3

[15] = biological target: T1, Interleukin-8 (IL8, CXCL8), C-terminal …; assay: competition; competition TR-FRET; conditions: tags: C-terminal His (Sino Biological); stem-loop

B1: Aptamer 248 (ssRNA)
RNA: GCGGUGGGAAAUGUGAGAUGGGUUGCCGC
modifications: 2'-F G except 2'-OMe G at X (XCXXU-GGGA-AAUGU-GAGAU-GGGUU-XCCXC); 2'-OMe A,C,U; 5' C6NH2; 3' idT
Q: For B1, which IC50 [1] is on record?
A: 2 nM

B2: Aptamer 99 (ssRNA)
RNA: UGAUGACGGUAGAUUAUGGGCAGUGUGACCGCAUCU
modifications: 2'-F G; 2'-OMe A,C,U; 5' C6NH2; 3' idT
Q: For B2, which IC50 [2] is on record?
A: 4 nM

B3: Aptamer 94 (ssRNA)
RNA: B2 RNA with A16U, U17C, C21U
modifications: 2'-F G; 2'-OMe A,C,U; 5' C6NH2; 3' idT
Q: How did the IC50 [3] turn out when B3 was run?
A: 3 nM

B4: Aptamer 45 (ssRNA)
RNA: GCGACGCAGAUUACGGGUAGAGUGGCGCGC
modifications: 2'-F G, 2'-OMe A/C/U, 5' C6NH2, 3' idT
Q: B4 was tested. Which binding signal [4] did it give?
A: > 10 fold worse than Aptamer 3

B5: Aptamer 12 (ssRNA)
RNA: UUGGCCACAGUAGAUUUCGGUGCGUGUGACUGGGCU
modifications: 2'-F G, 2'-OMe A/C/U, 5' C6NH2, 3' idT
Q: Which Kd [5] does the source give for B5 here?
A: 12 nM

B6: Aptamer 22 (ssRNA)
RNA: UCUGAAUCGGCUGAAACGGGAGCAUUAAUGUCCGGU
modifications: 2'-F G, 2'-OMe A/C/U, 5' C6NH2, 3' idT
Q: With B6 as the binder, how does the Kd [6] read?
A: 15 nM

B7: Aptamer 8 (ssRNA)
RNA: UACGGUGGGAAAUGUGAGAUGGGUUGCCGUAUUUU
modifications: 2'-F G; 2'-OMe A,C,U; 5' C6NH2; 3' idT
Q: Which IC50 [1] does the source give for B7 here?
A: 2 nM

B8: Aptamer 5 (ssRNA)
RNA: UCGUGAAGGGCGAUUCUGGUGCGUGUUCCCUCGCGU
modifications: 2'-F G, 2'-OMe A/C/U, 5' C6NH2, 3' idT
Q: Which Kd [7] does the source give for B8 here?
A: 10 nM

B9: Aptamer 2 (ssRNA)
RNA: UAGCGGCCGAAGUUAGCGUACGUUUGCCGGGUACGU
modifications: 2'-F G, 2'-OMe A/C/U, 5' C6NH2, 3' idT
Q: How did the Kd [8] turn out when B9 was run?
A: 9 nM

B10: Aptamer 54 (ssRNA)
RNA: CGGUGGGAAAUGUGAGACGGGUUGCCG
modifications: 2'-F G, 2'-OMe A/C/U, 5' C6NH2, 3' idT
Q: Does B10 bind [9]?
A: binds

B11: Aptamer 24 (ssRNA)
RNA: UUGCCCUUUGAUCGUACCGAGGCGGGGAAGUACGAU
modifications: 2'-F G, 2'-OMe A/C/U, 5' C6NH2, 3' idT
Q: With B11 as the binder, how does the Kd [10] read?
A: 9 nM

B12: Aptamer 59 (ssRNA)
RNA: CGGUGGGAAAUGUGAGAAGGGUUGCCG
modifications: 2'-F G, 2'-OMe A/C/U, 5' C6NH2, 3' idT
Q: Does B12 bind [11]?
A: binds

B13: Aptamer 13 (ssRNA)
RNA: UCGCUUGUACCUCUGAGAUGUGAGACUAAUGUAGGU
modifications: 2'-F G, 2'-OMe A/C/U, 5' C6NH2, 3' idT
Q: B13 was tested. Which Kd [12] did it give?
A: 7 nM

B14: Aptamer 193 (ssRNA)
RNA: GGCGACGGUAGAUUUUGGGUAGUGUGACCGCGCC
modifications: 2'-F G, 2'-OMe A/C/U, 5' C6NH2, 3' idT
Q: Does B14 bind [13]?
A: binds

B15: Aptamer 269 (ssRNA)
RNA: B14 RNA with U15A, U20C
modifications: 2'-F G except 2'-OMe G at X (XXCX-A-CXXU-AX-AU-UAUGGGCAGU-GU-G-ACCX-CXCC); 2'-OMe A,C,U; 5' C6NH2; 3' idT
Q: B15 was tested. Which IC50 [2] did it give?
A: 3 nM

B16: Aptamer 143 (ssRNA)
RNA: B14 RNA with U16C
modifications: 2'-F G; 2'-OMe A,C,U; 5' C6NH2; 3' idT
Q: How did the IC50 [3] turn out when B16 was run?
A: 2 nM

B17: Aptamer 197 (ssRNA)
RNA: B14 RNA with U20C
modifications: 2'-F G, 2'-OMe A/C/U, 5' C6NH2, 3' idT
Q: Does B17 bind [13]?
A: binds

B18: Aptamer 21 (ssRNA)
RNA: UUAAGCGCUGAGACGAGAGAUUAAUGCCGCUUGCCU
modifications: 2'-F G, 2'-OMe A/C/U, 5' C6NH2, 3' idT
Q: With B18 as the binder, how does the Kd [14] read?
A: 7 nM

B19: Aptamer 272 (ssRNA)
RNA: GCGACGGUAGAUUAUGGGCAGUGUGACCGCGC
modifications: 2'-F G except 2'-OMe G at X (XCX-A-CXXU-AX-AU-UAUGGGCAXU-GU-X-ACCX-CXC); 2'-OMe A,C,U; 5' C6NH2; 3' idT
Q: With B19 as the binder, how does the binding signal [15] read?
A: > 10 fold worse than Aptamer 147

B20: Aptamer 278 (ssRNA)
RNA: B19 RNA with A14U, U15C, C19U
modifications: 2'-F G except 2'-OMe G at X (XCX-A-CXXU-AX-AU-UUCGGGUAXU-GU-X-ACCX-CXC); 2'-OMe A,C,U; 5' C6NH2; 3' idT
Q: B20 was tested. Which binding signal [15] did it give?
A: > 10 fold worse than Aptamer 147
